Measurements: US20100136061A1 (LA JOLLA INSTITUTE FOR ALLERGY AND IMMUNOLOGY, published 2010)
Positions count from the first letter of the chain named.

B1: DcR3-Fc (human Decoy Receptor 3 Fc fusion) (Fc fusion, UniProt O95407 30-300, looked up)
chain: VAETPTYPWRDAETGERLVCAQCPPGTFVQRPCRRDSPTTCGPCPPRHYTQFWNYLERCRYCNVLCGEREEEARACHATHNRACRCRTGFFAHAGFCLEHASCPPGAGVIAPGTPSQNTQCQPCPPGTFSASSSSSEQCQPHRNCTALGLALNVPGSSSHDTLCTSCTGFPLSTRVPGAEECERAVIDFVAFQDISIKRLQRLLQALEAPEGWGPTPRAGRAALQLKLRRRLTELLGAQDGALLVRLLQALRVARMPGLERSVRERFLPVH
notes: also called human DcR3; not shown: Fc part
B2: Full Length Human LIGHT, predominant form (32S-214E), expressed on EL4 cells (ligand)
chain: MEESVVRPSVFVVDGQTDIPFTRLGRSHRRQSCSVARVGLGLLLLLMGAGLAVQGWFLLQLHWRLGEMVTRLPDGPAGSWEQLIQERRSHEVNPAAHLTGANSSLTGSGGPLLWETQLGLAFLRGLSYHDGALVVTKAGYYYIYSKVQLGGVGCPLGLASTITHGLYKRTPRYPEELELLVSQQSPCGRATSSSRVWWDSSFLGGVVHLEAGEEVVVRVLDERLVRLRDGTRSYFGAFMV
notes: Stably expressed on mouse EL4 thymoma cells by retroviral transduction; also called p30 polypeptide; TNFSF-14

What was measured:
[1] = target: T1, Heterotrimeric human LIGHT 32L-214E/32S-214K (combination of LIGHT-S32L and LIGHT-E214K subunits) expressed … (human, UniProt O43557 1-240; O43557 1-240); assay: competition flow cytometry, graded DcR3-Fc against constant LTβR-Fc on LIGHT expressing EL4 cells
T1 construct: Both polymorphic forms co-expressed in EL4 cells; also called combination of LIGHT-E214K and LIGHT-S32L
T1 chain 1: B2 chain with S32L
T1 chain 2: B2 chain with E214K
Procedure: (§1) FIGS. 11A-11B. Competition binding assay for LTβR-Fc to LIGHT expressing EL4 cells in the presence of DcR3. […] Specific LTβR-Fc binding to the LIGHT expressing EL4 cells was detected with an anti-LTβR monoclonal antibody (BD-A8). (B) IC50 values were calculated by nonlinear regression analysis using Prism GraphPad (v4; San Diego, USA).

[2] = target: B1; assay: as above
Procedure: as §1

| Binder | IC50 ratio against the predominant form of LIGHT (SEQ ID NO:1) [1] | binding result [2] |
| --- | --- | --- |
| B1 | ~2.5 times | – |
| B2 | – | binds |
